Laboratory results reported in US20190248903A1 (Genentech, published 2019).

What was measured:
[1] = molecular target: T1, cynomolgus CLL-1 on cells (HEK293AD cells stably expressing recombinant cynoCLL-1) (cynomolgus monkey); assay: Scatchard analysis on 293AD/cynoCLL1 cells
T1 construct: also called 293AD/cynoCLL-1; 293AD/cynoCLL1
T1 chain: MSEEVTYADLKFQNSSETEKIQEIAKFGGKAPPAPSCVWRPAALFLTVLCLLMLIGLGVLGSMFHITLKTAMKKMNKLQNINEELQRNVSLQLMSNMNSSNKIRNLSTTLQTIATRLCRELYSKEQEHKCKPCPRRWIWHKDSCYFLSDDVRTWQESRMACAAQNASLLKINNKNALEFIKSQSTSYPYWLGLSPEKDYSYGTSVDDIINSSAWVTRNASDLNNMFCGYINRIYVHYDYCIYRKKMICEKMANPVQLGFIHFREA
Description: Competition assay mixtures of 50 μL volume containing a fixed concentration of [I¹²⁵] labeled antibody and decreasing concentrations of serially diluted, unlabeled antibody were placed into 96-well plates. HEK293AD cells stably expressing recombinant hu or cynoCLL-1 or HL-60 tumor cells expressing endogenous CLL-1 were cultured in growth media at 37° C. in 5% CO₂. Cells were detached from the flask using Sigma Cell Dissociation Solution and were washed with binding buffer, which consisted of Dulbecco's Modified Eagle Medium (DMEM) with 1% bovine serum albumin (BSA), […] and 0.1% sodium azide. The washed cells were added to the 96 well plates at a density of 100,000 cells in 0.2 mL of binding buffer. […] The final concentration of the unlabeled antibody in the competition assay ranged from 1000 nM through ten 2-fold dilution steps to a 0 nM buffer-only assay. Competition assays were carried out in triplicate. Competition assays were incubated for 2 hours at room temperature. […] The filters were counted on a Wallac Wizard 1470 gamma counter (PerkinElmer Life and Analytical Sciences Inc.; Wellesley, Mass.). The binding data was evaluated using NewLigand software (Genentech), which uses the fitting algorithm of Munson and Robard to determine the binding affinity of the antibody (Munson and Robard 1980).

[2] = molecular target: T1, cynomolgus CLL-1 on cells (HEK293AD …); assay: Scatchard analysis on 293AD/cynoCLL1 cells; 293AD/cynoCLL1 cells

B1: humanized 6E7.L4H1e (antibody, V domains shown)
VH: EVQLVQSGAEVKKPGASVKVSCKASGYSFTDYYMHWVRQAPGQGLEWIGRINPYNGAAFYSQNFKDRVTLTVDTSTSTAYLELSSLRSEDTAVYYCAIERGADLEGYAMDYWGQGTLVTVSS
VL: DIQMTQSPSSLSASVGDRVTITCRASQSVSTSSYNYMHWYQQKPGKPPKLLIKYASNLESGVPSRFSGSGSGTDFTLTISSLQPEDFATYYCQHSWEIPLTFGQGTKVEIK
notes: also called h6E7.L4H1e; 6E7.L4H1eN54
[1]
  Kd: 0.22 nM
[2]
  Kd: 0.67 nM
